The results in this text go back to paper PMC13036084, “Cryo-EM structure of Chlamydomonas reinhardtii Photosystem I complexed with cytochrome c6” (Nature Communications, 2026).

Numbering of substitutions follows the chain as printed. In names and notes the source's numbering stands.

For this experiment, the target named is T1, PSAF subunit of Chlamydomonas reinhardtii Photosystem I (Chlamydomonas reinhardtii, UniProt P12356 63-227).
T1 construct: PSAF, Photosystem I subunit, Chlamydomonas reinhardtii; the transit peptide segment is included in the numbering of the PDB data; numbers count on: the mature protein; Stood in the experiment as a subunit of the PSI complex m2
T1 sequence (looked up): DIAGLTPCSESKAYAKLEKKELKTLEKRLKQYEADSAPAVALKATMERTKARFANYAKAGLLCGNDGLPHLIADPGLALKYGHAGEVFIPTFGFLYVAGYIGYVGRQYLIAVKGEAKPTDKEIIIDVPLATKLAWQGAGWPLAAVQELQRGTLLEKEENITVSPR
Nature of the experiment: cross-linking; non-activated Cyt c6 (4 μM) and PSI (40 μg Chl/mL) in 30 mM HEPES/KOH pH 7.5, 1 mM ascorbate, 0.1 mM DAD, 3 mM MgCl2, 0.03% α-DDM with 5 mM EDC and 10 mM sulfo-NHS, 45 min, room temperature, dark; quenched with 50 mM Tris pH 8.0; SDS-PAGE and Western blot with anti-Cyt c6. The settings on record: both partners purified. (In general: In western blotting, separated proteins are transferred to a membrane and probed.)

B1: Chlamydomonas reinhardtii cytochrome c6 E69Q/E70Q (natural protein)
chain: ADLALGAQVFNGNCAACHMGGRNSVMPEKTLDKAALEQYLDGGFKVESIIYQVENGKGAMPAWADRLSQQEIQAVAEYVFKQATDAAWKY
modifications: heme group (heme protein)
notes: cytochrome c6, Chlamydomonas reinhardtii; also called Cyt c6 (E69Q/E70Q); E69Q/E70Q double mutant; source: E. coli BL21, co-transformed with pEC86 (Ccm genes), purified (DEAE anion exchange, size exclusion)
As for B1, the binding result is reported as “binds”.

B2: Chlamydomonas reinhardtii cytochrome c6 E71Q (natural protein)
chain: B1 chain with Q69E, Q70E, E71Q
modifications: heme group (heme protein)
notes: cytochrome c6, Chlamydomonas reinhardtii; also called Cyt c6 (E71Q); source: E. coli BL21, co-transformed with pEC86 (Ccm genes), purified (DEAE anion exchange, size exclusion)
B2: the binding result was “binds”.
